± gives the standard deviation of the averaged measurements.
System: ATP
Experiment: switch fluorescence ratio, 500 uM ATP over buffer (Cy3 cluster intensity, sum of 5 cycles each) (fold (ratio)); higher = stronger signal-on switching upon ATP binding; sequences stand for … in TCGTCGGCAGCGTCAGATGTGTATAAGAGACAGTTTTTTTTTTTTTTTTTTTTTTTTT…TC
Settings: aptamer strand: ATP DNA aptamer (quencher-CACCTGGGGGAGTATTGCGGAGGAAGG + anchor), 100 nM annealed; ATP concentration: 500 uM
Outline: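 Clusters carrying Cy3-labelled switching strands on a modified Illumina MiSeq flow-cell were annealed to 100 nM quencher-labelled ATP aptamer and imaged in selection buffer. They were imaged again after 15 min with 500 uM ATP at 22 °C, over five buffer/ATP cycles with NaOH stripping and re-annealing in between. For each cluster, the fluorescence ratio is the summed Cy3 intensity of the target cycles divided by that of the buffer cycles, averaged per switch-domain sequence. Clusters outside 100-1000 RFU were left out.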
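Also: ATP exposure 15 min at 22 °C before imaging.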

Sequence	switch fluorescence ratio
CTGGATGGTG	0.98 ± 0.051
CGTAATGTTA	1.01 ± 0.019
GCATTATTCA	1.04 ± 0.014
TTAATACTTG	1.03 ± 0.018
TTTTTAAAGT	0.993 ± 0.026
TGCTTCATAA	1.01 ± 0.048
GATGGCGGGG	0.981 ± 0.03
TTTATATGGT	0.988 ± 0.028
TGTTATATTG	1 ± 0.035
GGAGGGGATC	0.998 ± 0.022
TTTAGATAAA	1.02 ± 0.017
TTACGAGATT	1.01 ± 0.068
GGGTGGGGCG	1.04 ± 0.043
AAGAAAGGGC	1 ± 0.041
AGACGGCGTG	0.9799 ± 0.0066
TAGGTCTGCG	0.978 ± 0.014
TAAGTTAAGC	1 ± 0.064
ACCAGTGGGC	1.04 ± 0.049
CCATCGGCTG	1.06 ± 0.038
CGGGGTGGGA	1.01 ± 0.029
ATCGATTTTA	0.978 ± 0.056
TTCCTTGGTA	1.04 ± 0.038
GTCAGAACG	1.03 ± 0.014
TTAGTTAAAT	1.002 ± 0.0013
TAGGTAGGGG	0.99 ± 0.036

Sequence	switch fluorescence ratio
TGCATTGTTT	0.999 ± 0.015
CTTTTTGTTG	1.03 ± 0.031
CGGGGGGCGC	0.969 ± 0.014
TTTTGCGAAC	1.94 ± 1.2
TTAATTCTGG	0.9976 ± 0.0034
CTGAGAGTAC	1.05 ± 0.07
ACGGCAAGGG	1.15 ± 0.063
TTCGTGACTT	1.02 ± 0.025
GGAGAAGAGA	0.9875 ± 0.004
TAAAGGTGAA	1.077 ± 0.0066
CTATGTATTT	1.002 ± 0.0011
CTGAGTGATG	1.01 ± 0.02
TGTAACTTGC	1.077 ± 0.0036
AGTGTTGCGG	0.952 ± 0.021
GCCAAAAGGG	1.015 ± 0.008
TTTCACACTC	1.02 ± 0.03
ATTTGCCTGT	0.982 ± 0.033
AGACGGATGC	1.05 ± 0.019
AAACTGGGAT	1.01 ± 0.033
GGAAGTGGTC	1.01 ± 0.059
AGCAGAAAAT	1.01 ± 0.025
TAGCGGGGGA	1.04 ± 0.019
ATAGTCCACC	1.014 ± 0.0072
AAACCCTGAG	1.14 ± 0.2
ATATCATGTT	0.995 ± 0.036

Sequence	switch fluorescence ratio
GGGTTCTCAG	0.995 ± 0.024
ATTGCTGTTT	1.037 ± 0.0019
GTTTTATGGG	0.969 ± 0.038
TACCCCCGTT	1.36 ± 0.041
TAAGCGGAAT	1.03 ± 0.013
GGGTGCATGT	0.99 ± 0.02
TTTCCCCAAT	1.07 ± 0.063
CGCAAGTATG	1.26 ± 0.036
GACACTTGTA	1.02 ± 0.025
TCACTATACA	1.315 ± 0.0077
TTGGATATGT	0.9573 ± 0.0047
CTAACGTATA	1.18 ± 0.036
ATCTTTGGTG	1.03 ± 0.022
AGGGCGACGC	0.912 ± 0.025
GGCAATTGTA	1.03 ± 0.027
CGCATCCCGC	1.37 ± 0.024
GTGAGGGGTT	0.971 ± 0.044
ATAGATAGGG	0.969 ± 0.021
CCGGTTTTTA	0.996 ± 0.01
CATTTTGTTG	1.01 ± 0.024
ATGAGACGTG	1.04 ± 0.037
GGTATTCAGC	0.957 ± 0.052
TGGGGGCTGG	0.991 ± 0.013
AATTCCGGGA	1.05 ± 0.068
GGACACAGGC	1.01 ± 0.023

Sequence	switch fluorescence ratio
GGTTTATATG	1.035 ± 0.0011
ATATGGGGAC	1.01 ± 0.024
CGCGGCGGGT	1.02 ± 0.034
AAGGTGATAG	1 ± 0.019
TGCAGGGGTA	1.12 ± 0.2
GAGATAGGTA	0.997 ± 0.024
GGGGACATGC	0.982 ± 0.078
ACGGGACGGC	1.04 ± 0.14
GGAGCGGGGG	1.02 ± 0.014
AGATCGTGAA	1 ± 0.0032
TTGTGTGTTA	0.9687 ± 0.0052
TCATCGTGCC	0.99 ± 0.032
TATTGTGATA	0.991 ± 0.039
TTAGTTTTCG	1.01 ± 0.02
TAGTAATCGT	1.01 ± 0.063
TGATCGCTTT	1.026 ± 0.01
TAATGAAAAA	1 ± 0.039
ATGTTTTATC	0.994 ± 0.016
CAGCCCTATA	1.04 ± 0.047
ACGACGGTAG	1.02 ± 0.029
GTGAGGACAA	1.05 ± 0.036
ATTGGAGGCT	0.971 ± 0.075
TTTAACGCCA	1.082 ± 0.0028
ATCGTCCCTT	0.986 ± 0.022
GCTTGAGATT	0.986 ± 0.015

Sequence	switch fluorescence ratio
AAAACTTCTT	1 ± 0.013
GCAGACGTTC	1.012 ± 0.005
AATAGCTAAA	0.999 ± 0.03
AACTACAACG	1.05 ± 0.018
AGCAGGGGAC	1.18 ± 0.23
GAGTTAAGGA	1.02 ± 0.03
GATCTGGGGC	1.06 ± 0.036
TCCGCGGGTT	1.14 ± 0.2
CTGCATCAGT	1.04 ± 0.011
GGTGGTGGGC	0.954 ± 0.01
TATGGGTACT	1 ± 0.027
TTTAAAAA	1.02 ± 0.044
CGGGAAAATA	1.03 ± 0.014
TTTCGGATTC	1.08 ± 0.059
GAGTTTGGG	1 ± 0.02
GAATTTCGGT	1.053 ± 0.0077
GGACCCTAAC	1.08 ± 0.062
TTCAGTTTCG	1.01 ± 0.027
AGTGCCATTG	0.9627 ± 0.0067
TTTTTGCTGT	2.91 ± 3.3
CCAACAGCCC	1.12 ± 0.079
AAATGGTGGT	1.02 ± 0.018
GTTAGTAAGG	1.01 ± 0.041
GTCGGACGGA	0.971 ± 0.042
ACGGAAGGGT	1.04 ± 0.043

Sequence	switch fluorescence ratio
AGGCTCATGG	1.028 ± 0.0089
TTACATAATT	1.02 ± 0.044
TTACCGTGTT	1.08 ± 0.037
GTGTTGTATT	0.988 ± 0.015
CGGGCTTGGC	1.01 ± 0.0022
ATTGCGGGTA	0.992 ± 0.042
AGGGAAAAAC	2.45 ± 2
GAGATATTTA	0.9905 ± 0.0036
TTTATAAGTA	1.02 ± 0.026
AGGGTAGGGC	1.02 ± 0.025
AGCACGCTTT	1.019 ± 0.0063
TTTTGACCGA	0.976 ± 0.073
GATTTTCGTA	0.985 ± 0.025
GGTGATTTAT	1.01 ± 0.029
ATATAGAGGG	0.9958 ± 0.0031
AAAACTTTGC	1.02 ± 0.039
GAATTGTACC	1.03 ± 0.028
AATATGTGGT	0.972 ± 0.015
ACGAAATAGT	1.183 ± 0.0065
GGGATCGGGG	0.988 ± 0.019
CGGTTTCTCG	0.982 ± 0.02
GAGGGGTATT	0.986 ± 0.016
TATCTAAATA	1.007 ± 0.007
TAAAGAAAGA	1.1 ± 0.23
GCGTTTAATT	1.02 ± 0.03

Sequence	switch fluorescence ratio
CTCAATACTT	1.786 ± 0.0034
GTGGCCTGGA	1.01 ± 0.025
GATATAGGTT	1 ± 0.02
TAATGGTTAG	1.016 ± 0.0048
TGGGCTCCGG	1 ± 0.031
CCGAGTAGGG	1.074 ± 0.0031
CAAATACGAT	1.05 ± 0.04
CCTTTTATTT	1.04 ± 0.018
AGTTGTTAGT	0.969 ± 0.021
TCGGTGTCCG	1.03 ± 0.055
TTCGGGTATG	1.01 ± 0.013
TAGGTTTAGT	0.9841 ± 0.0094
GACTATTGGT	0.969 ± 0.0098
AAAGAAGTGG	0.959 ± 0.027
GTTACCGTTT	1.02 ± 0.053
ACGGCTTAGG	1.03 ± 0.034
GATTGTAGGT	1 ± 0.015
GGTCCAAGAT	0.9998 ± 0.0066
TGGGAGAAGG	1.02 ± 0.057
GTGTTATATA	0.986 ± 0.013
GTCATCAGTG	1.02 ± 0.027
AATGGGTTTT	0.976 ± 0.011
ACCAATGGTC	1.02 ± 0.041
GCGTAAGTTC	0.981 ± 0.011
TTGTCACAGG	1.09 ± 0.056

Sequence	switch fluorescence ratio
CGTTTTACCG	1.02 ± 0.032
TTGAAGGCGG	1.02 ± 0.024
CAAAAGTAGA	0.991 ± 0.036
CGTCACATGT	1.009 ± 0.0048
CGGTTGTTTT	1.023 ± 0.0065
TGTTGAAATT	1.03 ± 0.077
TGGGGACGCT	0.9977 ± 0.004
TAACGGCATG	1.031 ± 0.0035
ACTGGTAAGG	1.009 ± 0.0053
TCCAGTAGTT	0.982 ± 0.024
TGGGGGGCGC	0.989 ± 0.025
TTACAGGACG	1.2 ± 0.22
TGTAAAGGGT	0.9778 ± 0.0084
ACCGTTTGGT	0.999 ± 0.038
TTCATAAATT	1.02 ± 0.023
AATGATATGA	1.02 ± 0.05
TTTTCTTTGC	1.03 ± 0.042
ATACGAACGT	0.9928 ± 0.0019
AGCTCGGGTA	0.998 ± 0.025
TTATGAATAT	0.9824 ± 0.005
GGTCTCTTAC	1.02 ± 0.037
TTCGAGACGG	0.98 ± 0.025
ATGTTTATGA	0.981 ± 0.031
TCGGAAAGGG	0.9961 ± 0.0049
ATTATCAGCC	1.022 ± 0.0041

Source: the supplement of paper PMC10126150
